In experiment [1] the target is T1, human angiopoietin-2 (human, UniProt O15123 19-496, limits assumed).
T1 construct: also called hAng-2; huAng-2
T1 sequence (looked up): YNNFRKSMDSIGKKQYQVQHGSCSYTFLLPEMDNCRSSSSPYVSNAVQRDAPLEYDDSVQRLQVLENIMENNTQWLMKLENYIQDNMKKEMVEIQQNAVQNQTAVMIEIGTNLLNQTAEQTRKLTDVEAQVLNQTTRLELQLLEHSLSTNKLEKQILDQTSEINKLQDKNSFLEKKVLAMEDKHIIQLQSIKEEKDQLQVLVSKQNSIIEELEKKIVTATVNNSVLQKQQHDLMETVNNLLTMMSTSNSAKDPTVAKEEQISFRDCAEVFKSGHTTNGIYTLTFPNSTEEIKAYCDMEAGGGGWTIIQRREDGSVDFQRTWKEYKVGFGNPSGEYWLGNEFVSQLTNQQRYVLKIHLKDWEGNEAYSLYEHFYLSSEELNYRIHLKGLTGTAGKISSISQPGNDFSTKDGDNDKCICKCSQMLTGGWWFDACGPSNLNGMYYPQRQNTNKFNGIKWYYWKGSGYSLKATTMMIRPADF
In words: Affinity ELISA on plate-bound hAng-2. On the technique in general: An ELISA detects its analyte on a solid surface through an enzyme-linked reagent.

Experiment [2] addresses T2, murine Ang-2, His-tagged (mouse, UniProt O35608 19-496).
T2 construct: also called mAng-2; mAng-2-His
T2 sequence (looked up): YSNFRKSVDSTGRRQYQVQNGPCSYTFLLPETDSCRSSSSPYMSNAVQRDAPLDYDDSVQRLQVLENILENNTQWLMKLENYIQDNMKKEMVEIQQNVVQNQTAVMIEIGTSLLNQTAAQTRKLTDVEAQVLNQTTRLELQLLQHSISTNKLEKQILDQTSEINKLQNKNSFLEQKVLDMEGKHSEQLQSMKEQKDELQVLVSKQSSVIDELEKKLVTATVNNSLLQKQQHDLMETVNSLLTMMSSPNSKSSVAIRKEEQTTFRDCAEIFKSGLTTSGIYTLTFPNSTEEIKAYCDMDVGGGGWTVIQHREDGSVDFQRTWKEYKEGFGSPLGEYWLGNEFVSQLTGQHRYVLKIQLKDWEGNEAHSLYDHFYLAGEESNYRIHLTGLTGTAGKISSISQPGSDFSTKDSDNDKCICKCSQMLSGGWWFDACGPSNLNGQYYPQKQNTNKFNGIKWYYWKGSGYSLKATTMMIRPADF
In words: Neutralization ELISA: antibody titrated against 1 nM Tie2-Fc on plate-bound mAng-2.

Experiment [3] addresses T2, murine Ang-2, His-tagged. In words: Affinity ELISA on plate-bound mAng-2.
In experiment [4] the target is T1, human angiopoietin-2. In words: Neutralization ELISA: antibody titrated against 1 nM Tie2-Fc on plate-bound hAng-2. Here is the method: Microtiter plates to which human Ang-2 polypeptide was bound were prepared as described for the Affinity ELISA. […] Next, about 100 microliters per well of goat anti-mouse-IgG-HRP (Pierce Chemical CO., catalog #31432) was added at a dilution of 1:10,000 in PBS containing about 1 percent BSA. Plates were incubated at room temperature for about 1 hour, after which they were washed five times with PBS containing about 0.1 percent Tween-20. About 100 microliters per well of TMB substrate (described above) was then added and color was allowed to develop. Absorbance was then read in a spectrophotomer at 370 nm.
Seventeen of the antibodies and a negative control IgG1 (referred to as RDB1) were tested using affinity and neutralization ELISA (as described in Example 3 above) as well as the BIAcore neutralization assay to determine their affinity, neutralization, and specificity capabilities.

In experiment [5] the target is T2, murine Ang-2, His-tagged. As to the kind of experiment: BIAcore: antibody captured on Protein G, mAng-2 injected. Here is the method:
(§1) Binding assays were carried out by first attaching about 100 Ru of each candidate anti-Ang-2 antibody to the immobilized Protein G, after which various concentrations (0-100 nM) of huAng-2 or mAng-2 were then injected over the bound antibody surface at a flow rate of about 50 ul/min for about 3 minutes. Antibody binding kinetics including kₐ (association rate constant), kd (dissociation rate constant) and KD (dissociation equilibrium constant) were determined using the BIA evaluation 3.1 computer program (BIAcore, Inc.).
A general note: SPR reads the build-up and loss of mass on a sensor chip optically.

Experiment [6] has as its target T3, human angiopoietin-1 (human, UniProt Q15389 20-498).
T3 construct: also called hAng-1; Human Ang1
T3 sequence (looked up): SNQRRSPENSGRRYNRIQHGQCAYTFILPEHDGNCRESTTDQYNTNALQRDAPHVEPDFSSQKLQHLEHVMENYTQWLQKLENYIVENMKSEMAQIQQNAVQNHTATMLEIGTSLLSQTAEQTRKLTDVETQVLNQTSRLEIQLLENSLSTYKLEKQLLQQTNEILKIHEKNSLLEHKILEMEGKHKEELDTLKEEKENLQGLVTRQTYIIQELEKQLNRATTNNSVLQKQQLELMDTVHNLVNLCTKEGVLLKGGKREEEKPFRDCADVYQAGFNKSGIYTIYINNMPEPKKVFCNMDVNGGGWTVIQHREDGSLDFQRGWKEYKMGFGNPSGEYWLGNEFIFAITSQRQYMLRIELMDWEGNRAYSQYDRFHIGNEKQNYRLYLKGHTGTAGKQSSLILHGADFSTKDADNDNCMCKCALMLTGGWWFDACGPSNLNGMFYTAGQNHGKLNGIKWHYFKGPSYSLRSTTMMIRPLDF
In words: Neutralization ELISA: antibody titrated against 1 nM Tie2-Fc on plate-bound hAng-1.

In experiment [7] the target is T3, human angiopoietin-1. As to the kind of experiment: Affinity ELISA on plate-bound hAng-1.
Experiment [8] concerns the target T1, human angiopoietin-2. As to the kind of experiment: BIAcore: antibody captured on Protein G, huAng-2 injected. Here is the method: as §1
The target in a further experiment is T4, Tie2-Fc (human, UniProt Q02763 23-748).
T4 construct: extracellular domain; Bought reagent; Allophycocyanin-conjugated in the HTRF assay; also called hTie2-Fc; human Tie2-Fc; not shown: Fc portion of the bought Tie2-Fc
As to the kind of experiment: ELISA at one concentration on conditioned medium with N-terminal hAng-2 (aa 1-254, 6xHis); O.D. 370; control pCDNA3 vector medium. Here is the method: The binding epitope of anti-Ang-2 antibodies and peptibodies was determined by their ability to bind the three versions of human hAng-2 by ELISA according to the following protocol: a high-binding 96-well assay plate was coated with 100 μl of conditioned media per well, and incubated at 37° C. for 1 hour. Conditioned media was aspirated, and the plate was blocked with 200 μl per well of 5% BSA in PBS at room temperature for 1 hour. The blocking solution was then aspirated. […] The wells were washed 4 times with 200 μl of 0.1% Tween in PBS. 100 μl per well of HRP-conjugated goat anti-human IgG or goat anti-mouse IgG were added, and incubated at room temperature for 45 minutes. The wells were then washed with 200 μl of 0.1% Tween in PBS 4 times. 100 μl per well of TMB substrate was then added. O.D. was read at 370 nm.

For experiment [9], the target named is T1, human angiopoietin-2. As to the kind of experiment: ELISA: antibody titrated against 1 nM hTie2-Fc on plate-bound human Ang2 (293T conditioned media). Here is the method:
(§2) For the ELISA assay, ninety-six-well microtiter plates were coated with recombinant angiopoietins in 293T cell conditioned media (DMEM/50 ug/ml BSA) at 37° C. for 1 hour. […] Plates were washed with PBS/0.1% Tween-20 and then blocked for 2 hours at room temperature with PBS/5% BSA. […] Goat anti-mouse-IgG-HRP (Pierce, catalog #31432) was added at a dilution of 1:10,000 in PBS/1% BSA (1 hour incubated at room temperature), after which plates were washed several times with PBS/0.1% Tween-20.
(§3) All results were expressed as IC50 curves calculated from samples that were tested in duplicate using the formula below.

The target in experiment [10] is T1, human angiopoietin-2. As to the kind of experiment: HTRF: antibody titrated against biotinylated human Ang2 and APC-conjugated human Tie2-Fc. Here is the method: For HTRF assays, a ninety-six-well microtiter “mix plate” was prepared by adding 50 ul of HTRF buffer (50 mM Tris-HCl, pH 7.5, 100 mM NaCl, 0.05% Tween 20, 0.1% BSA) containing 0.8 nM Europium-conjugated streptavidin (PERKIN ELMER LIFE SCIENCES INC., catalog #AD0062) and 4.0 nM biotinylated human angiopoietin 1 (R & D Systems) or angiopoietin 2 (Amgen Inc.) to each well. In a separate microtiter plate, angiopoietin-neutralizing agents were titrated from 400 nM to […] in HTRF buffer, and 50 ul of each serially-diluted angiopoietin-neutralizing agent were then transferred and mixed with the “mix plate” containing the streptavidin-Europium/angiopoietin. The plate was then incubated on a shaker at room temperature for one hour. […] The final “assay plate” was incubated at room temperature with shaking for two hours. […] Assay plates were analyzed using a Rubystar plate reader (BMG Labtechnologies, Offenberg, Germany). […] IC50 values were then calculated by analyzing percentage inhibition using the GRAFIT 5.0 program (Erithacus Software Ltd.).
as §3
On the technique in general: In TR-FRET formats the signal depends on donor and acceptor labels being close together.

In experiment [11] the target is T5, Mouse Ang2 (recombinant, 293T cell conditioned media) (mouse, UniProt O35608 19-496).
T5 construct: construct not described
T5 sequence (looked up): T2 sequence (looked up)
In words: ELISA: antibody titrated against 1 nM hTie2-Fc on plate-bound mouse Ang2 (293T conditioned media). Here is the method: as §2, §3

T4 sequence (Q02763 23-748): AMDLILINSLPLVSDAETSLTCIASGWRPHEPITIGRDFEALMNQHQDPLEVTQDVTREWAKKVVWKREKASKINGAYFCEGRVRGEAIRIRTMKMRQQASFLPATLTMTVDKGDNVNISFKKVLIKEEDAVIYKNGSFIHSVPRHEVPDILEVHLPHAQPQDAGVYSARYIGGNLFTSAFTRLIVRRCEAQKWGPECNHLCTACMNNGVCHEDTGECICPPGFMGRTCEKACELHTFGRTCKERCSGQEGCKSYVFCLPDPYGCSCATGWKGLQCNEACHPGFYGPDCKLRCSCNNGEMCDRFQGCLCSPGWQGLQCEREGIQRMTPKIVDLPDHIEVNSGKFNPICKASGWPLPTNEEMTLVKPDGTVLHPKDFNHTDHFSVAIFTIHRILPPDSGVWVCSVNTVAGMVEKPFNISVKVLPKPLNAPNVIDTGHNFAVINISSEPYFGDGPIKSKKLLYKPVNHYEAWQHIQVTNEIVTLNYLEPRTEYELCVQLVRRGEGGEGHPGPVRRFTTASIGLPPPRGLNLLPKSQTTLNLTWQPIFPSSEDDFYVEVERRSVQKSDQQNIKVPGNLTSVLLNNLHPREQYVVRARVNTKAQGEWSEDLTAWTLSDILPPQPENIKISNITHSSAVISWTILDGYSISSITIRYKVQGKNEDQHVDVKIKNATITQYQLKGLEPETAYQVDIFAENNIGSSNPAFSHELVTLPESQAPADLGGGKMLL

B1: Ab 545 (antibody, human IgG1, lambda, V domains shown)
VH: QVQLQESGGGVVQPGRSLRLSCAASGFTFSSYGMHWVRQAPGKGLEWVAVISYDGSNKYYADSVKGRFTISRDNSKNTLYLQMNSLRAEDTAVYYCAKGPVDFDYGDYAIDYWGQGTLVTVSS
VL: QSVLTQPSSVSGAPGQRVTISCTGQSSNIGAGYDVHWYQQFPGRAPKLLIYGNSNRPSGVPDRFSGSKSGTSASLAITGLQPEDEADYYCQSYDSRLSGSVFGGGTKLTVLG
notes: Fully human IgG1 lambda; also called clone 545
With B1, the EC50 (as a rule, the concentration that produces a half-maximal response) with human angiopoietin-2 [1] was 0.02 nM; in the experiment with murine Ang-2, His-tagged [3] it was 0.05 nM; in the experiment with human angiopoietin-1 [7], 2 nM. Moreover, the IC50 (as a rule, the concentration that gives 50% inhibition) with murine Ang-2, His-tagged [2] is 1.3 nM; in the experiment with human angiopoietin-2 [4], 1.04 nM; in the experiment with human angiopoietin-1 [6] it was 8.31 nM. Also, the Kd (in general, the equilibrium constant for the complex coming apart) with murine Ang-2, His-tagged [5] turned out to be 0.9 nM; with human angiopoietin-2 [8], 1.2 nM. Besides, the koff (as a rule, a measure of how fast the partners let go of each other) in the experiment with murine Ang-2, His-tagged [5] was 0.00053 s⁻¹; with human angiopoietin-2 [8] it was 0.00039 s⁻¹. The on-rate (kon) (in general, the second-order rate constant of association) with murine Ang-2, His-tagged [5] was found to be 590000 M⁻¹ s⁻¹; with human angiopoietin-2 [8], 330000 M⁻¹ s⁻¹.

B2: N-term hAng2 (aa 1-254) (ligand)
chain: YNNFRKSMDSIGKKQYQVQHGSCSYTFLLPEMDNCRSSSSPYVSNAVQRDAPLEYDDSVQRLQVLENIMENNTQWLMKLENYIQDNMKKEMVEIQQNAVQNQTAVMIEIGTNLLNQTAEQTRKLTDVEAQVLNQTTRLELQLLEHSLSTNKLEKQILDQTSEINKLQDKNSFLEKKVLAMEDKHIIQLQSIKEEKDQLQVLVSKQNSIIEELEKKIVTATVNNSVLQKQQHDLMETHHHHHH
notes: also called N-terminal human Ang-2
Consider B2, for which the binding result with Tie2-Fc is “no binding (tested: 1 µg/ml)”.

B3: Ab 536 (THW/LQT mixture) (antibody, V domains shown)
VH: EVQLVQSGGGVVQPGRSLRLSCAASGFTFSSYGMHWVRQAPGKGLEWVSYISSSGSTIYYADSVKGRFTISRDNAKNSLYLQMNSLRAEDTAVYYCARDLLDYDILTGYGYWGQGTLVTVSS
VL: not shown
notes: each antibody in the mixture has two heavy and two light chains; also called clone 536; copies: 2 + 2
For the molecule B3, the 50% effective concentration (EC50) with human angiopoietin-2 [1] was found to be 0.005 nM; in the experiment with murine Ang-2, His-tagged [3], 0.01 nM; with human angiopoietin-1 [7], 30 nM. Moreover, the IC50 with murine Ang-2, His-tagged [2] came out at 0.05 nM; with human angiopoietin-2 [4] it was 0.08 nM; with human angiopoietin-1 [6], 115 nM. The Kd in the experiment with murine Ang-2, His-tagged [5] amounted to 0.15 nM; with human angiopoietin-2 [8], 0.12 nM. Moreover, the off-rate (koff) in the experiment with murine Ang-2, His-tagged [5] was found to be 9.5e-05 s⁻¹; in the experiment with human angiopoietin-2 [8] it was 3.8e-05 s⁻¹. In addition, the kon with murine Ang-2, His-tagged [5] worked out at 620000 M⁻¹ s⁻¹; with human angiopoietin-2 [8], 320000 M⁻¹ s⁻¹.

B4: Ab536 LQT (antibody, human IgG1, kappa, V domains shown)
VH: B3 VH
VL: not shown
notes: Fully human IgG1 kappa; variant separated from the clone 536 mixture; also called 536 kappa LQT variant
For B4, the values for the 50% inhibitory concentration (IC50) (with human angiopoietin-2 [9]; with human angiopoietin-2 [10]; in [11]) were 0.35 nM, 0.072 nM and 0.1 nM, respectively.

B5: Ab536 THW (antibody, human IgG1, kappa, V domains shown)
VH: B3 VH
VL: not shown
notes: Fully human IgG1 kappa; variant separated from the clone 536 mixture; also called 536 kappa THW variant
For the molecule B5, the IC50 amounted to 0.31 nM in the experiment with human angiopoietin-2 [9], 0.071 nM with human angiopoietin-2 [10] and 0.088 nM in [11].

The values are drawn from patent US20130142799A1 (Amgen, published 2013).
